In PMC9873692 (2023):

B1: P2 domain of the histidine kinase CheA (domain or fragment)
chain: GFKTFYIKVILKEGTQLKSARIYLVFHKLEELKCEVVRTIPSVEEIEEEKFENEVELFVISPVDLEKLSEALSSIADIERVIIKEV
modifications: biotin (in vivo biotinylation, AviTag)
B2: CheY protein from Thermotoga maritima (natural protein)
chain: MGKRVLIVDDAAFMRMMLKDIITKAGYEVAGEATNGREAVEKYKELKPDIVTMDITMPEMNGIDAIKEIMKIDPNAKIIVCSAMGQQAMVIEAIKAGAKDFIVKPFQPSRVVEALNKVSK

Assays:
Test in all cases: ITC
Cheytin 1 = biological target: Cheytin 1
Cheytin 2 = biological target: Cheytin 2
Cheytin 3 = biological target: Cheytin 3
Cheytin 4 = biological target: Cheytin 4
[1] = biological target: B1

Kd (Cheytin 1) [nM]	Kd (Cheytin 2) [nM]	Kd (Cheytin 3) [nM]	Kd (Cheytin 4) [nM]	Kd [1] [nM]	Binder
220	110	660	490		B1
				150	B2
